Substrate in the series: O=P(O)(O)c1ccc(Cc2ccc(P(=O)(O)O)cc2)cc1
In words: Binding affinity towards the binding site of human protein tyrosine phosphatase 1B (PTP1B) enzyme expressed in Escherichia coli cells.

What is called Km is the substrate concentration at which the rate is half of its maximum.

B1: Tyrosine-protein phosphatase non-receptor type 1 (Homo sapiens), P18031 (protein)
chain: MEMEKEFEQIDKSGSWAAIYQDIRHEASDFPCRVAKLPKNKNRNRYRDVSPFDHSRIKLHQEDNDYINASLIKMEEAQRSYILTQGPLPNTCGHFWEMVWEQKSRGVVMLNRVMEKGSLKCAQYWPQKEEKEMIFEDTNLKLTLISEDIKSYYTVRQLELENLTTQETREILHFHYTTWPDFGVPESPASFLNFLFKVRESGSLSPEHGPVVVHCSAGIGRSGTFCLADTCLLLMDKRKDPSSVDIKKVLLEMRKFRMGLIQTADQLRFSYLAVIEGAKFIMGDSSVQDQWKELSHEDLEPPPEHIPPPPRPPKRILEPHNGKCREFFPNHQWVKEETQEDKDCPIKEEKGSPLNAAPYGIESMSQDTEVRSRVVGGSLRGAQAASPAKGEPSLPEKDEDHALSYWKPFLVNMCVATVLTAGAYLCYRFLFNSNT
Turning to B1, the Km was determined as 16 µM.

These data come from ChEMBL document CHEMBL1134320, “Structure of protein tyrosine phosphatase 1B in complex with inhibitors bearing two phosphotyrosine mimetics” (J Med Chem, 2001).
